Measured values: article PMC6913129
Read-outs that look alike come from different tables or passages of the source.

How the values were obtained:
Experiment in all cases: BLI
[1] = molecular target: T1, IFIT5 (UniProt Q13325 1-482)
T1 sequence: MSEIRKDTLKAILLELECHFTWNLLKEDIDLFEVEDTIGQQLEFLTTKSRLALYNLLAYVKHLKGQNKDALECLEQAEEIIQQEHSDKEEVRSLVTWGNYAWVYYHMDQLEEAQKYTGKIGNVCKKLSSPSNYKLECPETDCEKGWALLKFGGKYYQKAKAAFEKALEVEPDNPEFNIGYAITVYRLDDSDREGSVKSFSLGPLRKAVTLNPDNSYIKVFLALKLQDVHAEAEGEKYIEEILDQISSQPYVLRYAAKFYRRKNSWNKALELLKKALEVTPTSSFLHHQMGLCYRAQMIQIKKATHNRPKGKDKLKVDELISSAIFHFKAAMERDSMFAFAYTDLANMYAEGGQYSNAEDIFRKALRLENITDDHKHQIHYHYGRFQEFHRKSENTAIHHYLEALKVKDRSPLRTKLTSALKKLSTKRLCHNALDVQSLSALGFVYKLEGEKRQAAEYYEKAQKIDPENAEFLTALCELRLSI

[2] = molecular target: T2, IFIT1 (UniProt P09914 1-478)
T2 sequence: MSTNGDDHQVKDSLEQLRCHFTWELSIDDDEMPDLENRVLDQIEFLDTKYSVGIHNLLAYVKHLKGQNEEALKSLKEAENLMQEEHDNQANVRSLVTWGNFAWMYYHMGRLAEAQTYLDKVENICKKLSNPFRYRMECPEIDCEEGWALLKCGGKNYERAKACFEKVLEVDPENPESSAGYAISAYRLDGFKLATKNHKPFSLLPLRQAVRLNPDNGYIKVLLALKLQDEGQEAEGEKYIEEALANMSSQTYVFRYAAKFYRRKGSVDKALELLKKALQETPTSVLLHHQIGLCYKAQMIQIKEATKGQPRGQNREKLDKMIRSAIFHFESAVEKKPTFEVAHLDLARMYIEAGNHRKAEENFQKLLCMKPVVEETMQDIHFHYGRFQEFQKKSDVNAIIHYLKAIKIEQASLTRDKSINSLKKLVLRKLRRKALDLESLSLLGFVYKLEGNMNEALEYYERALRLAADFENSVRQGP

[3] = molecular target: T1, IFIT5; remark: listed apart in the source

Row | Binder | Kd [2] [nM] | also measured
1 | AGGAGACCGGCCUCGA (ssRNA, 5' NADH cap (first A is the NADH adenosine, inferred)) [NADH-16ntRNA] |  | binding result [1]: binds
2 | AGGAGACCGGCCUCGA (ssRNA, 5' triphosphate) [pppA-16ntRNA] | 23.4 | 
3 | AGGAGACCGGCCUCGA (ssRNA, 5' NAD+ cap (first A is the NAD adenosine, inferred)) [NAD+-16ntRNA] |  | binding result [3]: binds
4 | AGGAGACCGGCCUCGA (ssRNA, 5' GpppA cap (unmethylated; cap G not in strand)) [GpppA-16ntRNA] | 2.65 | 
5 | AGGAGACCGGCCUCGA (ssRNA, 5' m7GpppAm cap 1 (2'-O-methyl A1)) [m7GpppAmG-16ntRNA] | 44 | 
6 | AGGAGACCGGCCUCGA (ssRNA, 5' m7GpppA cap 0) [m7GpppAG-16ntRNA (m7GpppA)] | 6.12 | 
